Values of other authors, collected in paper PMC7948954.

Assays:
Pf1 = Pf1 (UniProt Q96QT6)
Mad1 = Mad1 (UniProt Q05195)
SAP30 = SAP30 (UniProt O88574)
[1] = target: Col10 (Arabidopsis thaliana) (UniProt Q9LUA9)
[2] = target: STO (Arabidopsis thaliana) (UniProt Q96288)
[3] = target: DREB2a (Arabidopsis thaliana) (UniProt O82132)
[4] = target: ANAC087 (Arabidopsis thaliana) (UniProt Q9FK44)
[5] = target: ANAC013 (Arabidopsis thaliana) (UniProt F4IED2)
UniProt F4IED2, sequence (F4IED2 whole entry): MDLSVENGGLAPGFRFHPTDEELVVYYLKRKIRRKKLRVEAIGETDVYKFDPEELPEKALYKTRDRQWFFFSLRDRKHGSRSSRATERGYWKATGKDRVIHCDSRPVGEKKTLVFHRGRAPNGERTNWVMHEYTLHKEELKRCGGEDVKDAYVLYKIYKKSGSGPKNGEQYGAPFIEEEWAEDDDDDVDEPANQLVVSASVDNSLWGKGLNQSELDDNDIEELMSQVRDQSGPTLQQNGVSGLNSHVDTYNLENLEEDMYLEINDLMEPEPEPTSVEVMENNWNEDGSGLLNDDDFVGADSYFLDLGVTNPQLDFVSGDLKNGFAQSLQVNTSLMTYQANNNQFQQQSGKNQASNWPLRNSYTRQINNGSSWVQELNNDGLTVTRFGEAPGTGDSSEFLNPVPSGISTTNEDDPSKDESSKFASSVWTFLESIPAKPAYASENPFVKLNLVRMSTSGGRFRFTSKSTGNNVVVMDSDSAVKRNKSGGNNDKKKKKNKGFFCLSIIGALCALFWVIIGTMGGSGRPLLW

UniProt Q9LUA9, sequence (Q9LUA9 whole entry): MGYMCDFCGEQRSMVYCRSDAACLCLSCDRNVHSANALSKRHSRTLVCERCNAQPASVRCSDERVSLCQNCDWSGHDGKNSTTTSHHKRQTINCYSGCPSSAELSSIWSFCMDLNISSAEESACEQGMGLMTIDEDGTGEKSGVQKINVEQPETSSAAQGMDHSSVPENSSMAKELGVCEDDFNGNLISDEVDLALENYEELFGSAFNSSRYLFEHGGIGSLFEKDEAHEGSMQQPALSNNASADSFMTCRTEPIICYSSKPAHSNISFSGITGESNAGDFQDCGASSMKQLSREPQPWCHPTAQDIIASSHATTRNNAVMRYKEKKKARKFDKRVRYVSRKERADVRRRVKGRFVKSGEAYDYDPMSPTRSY
UniProt Q05195, sequence (Q05195 5-24): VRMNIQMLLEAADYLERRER
UniProt Q9FK44, sequence (Q9FK44 whole entry): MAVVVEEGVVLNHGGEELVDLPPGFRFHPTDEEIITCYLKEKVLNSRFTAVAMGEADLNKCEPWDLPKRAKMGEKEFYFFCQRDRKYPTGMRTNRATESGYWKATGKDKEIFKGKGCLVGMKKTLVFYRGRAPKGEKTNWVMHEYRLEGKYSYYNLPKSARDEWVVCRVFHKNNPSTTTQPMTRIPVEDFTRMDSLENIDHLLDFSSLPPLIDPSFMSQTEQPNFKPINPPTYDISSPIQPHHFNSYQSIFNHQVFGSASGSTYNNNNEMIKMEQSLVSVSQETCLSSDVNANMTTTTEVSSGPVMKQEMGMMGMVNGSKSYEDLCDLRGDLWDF
UniProt Q96QT6, sequence (Q96QT6 202-241): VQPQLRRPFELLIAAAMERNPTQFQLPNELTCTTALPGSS
UniProt O82132, sequence (O82132 whole entry): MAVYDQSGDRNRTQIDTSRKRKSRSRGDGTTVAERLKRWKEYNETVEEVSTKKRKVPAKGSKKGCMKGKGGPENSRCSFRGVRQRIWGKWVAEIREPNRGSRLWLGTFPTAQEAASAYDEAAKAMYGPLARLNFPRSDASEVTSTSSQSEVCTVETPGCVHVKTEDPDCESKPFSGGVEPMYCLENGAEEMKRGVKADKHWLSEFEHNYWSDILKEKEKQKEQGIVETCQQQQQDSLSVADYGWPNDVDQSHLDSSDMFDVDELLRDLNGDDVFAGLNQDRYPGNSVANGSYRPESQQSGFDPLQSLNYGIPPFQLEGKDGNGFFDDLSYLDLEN
UniProt O88574, sequence (O88574 130-220): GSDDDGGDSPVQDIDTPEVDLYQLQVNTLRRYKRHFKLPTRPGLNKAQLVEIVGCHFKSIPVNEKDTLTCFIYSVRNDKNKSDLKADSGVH
UniProt Q96288, sequence (Q96288 whole entry): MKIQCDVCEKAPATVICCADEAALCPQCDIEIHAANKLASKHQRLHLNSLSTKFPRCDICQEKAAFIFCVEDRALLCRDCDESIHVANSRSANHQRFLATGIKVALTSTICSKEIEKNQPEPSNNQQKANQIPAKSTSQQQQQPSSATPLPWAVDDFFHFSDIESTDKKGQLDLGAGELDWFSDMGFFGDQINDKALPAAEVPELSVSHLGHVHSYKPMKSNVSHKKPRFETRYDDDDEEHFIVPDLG

In the case of Sin3 PAH2 (from UniProt Q60520), the Kd (Pf1) is given as 2000 nM and the Kd (Mad1) is given as 50 nM.

In the case of Sin3a PAH3 (from UniProt Q60520), the Kd (SAP30) is given as 9 nM.

In the case of RCD1 RST (from UniProt Q8RY59), the Kd [1] is given as 418 nM, the Kd [2] is given as 90 nM and the Kd [3] is given as 16 nM. For the same substance, the Kd [4] was 1800 nM and the Kd [5] was 9 nM.
